In the assay the target is C-terminally labeled STIM1(del302-448) (STIM1(del302-448)-AcGFP / STIM1(del302-448)-mApple) (human) (UniProt Q13586). In words: cross-linking; chemical crosslinking with dithiobis(succinymidyl propionate); constructs separately expressed; unstimulated state (Supplemental Figure S2).

Consider “C-terminally labeled STIM1(del302-448) (STIM1(del302-448)-AcGFP / STIM1(del302-448)-mApple) (from UniProt Q13586 23-685) (natural protein)”, for which the stoichiometry N came out at 2.

For the origin of these results see publication PMC4883682.
